Consider 46 substances from the Human Domainome abundance scans (Beltran et al. 2025).

± gives the uncertainty stated by the source.

The nature of this data set: abundance fitness (aPCA) (normalised: wild type 0, dead -1); higher = more abundant; growth selection in yeast, the domain comes from the species named. Conditions: Homo sapiens.
Consider “Lipoamide acyltransferase component of branched-chain alpha-keto acid dehydrogenase complex, mitochondrial K211M, P11182”, for which the abundance fitness was -0.073 ± 0.051.

For the substance “Lipoamide acyltransferase component of branched-chain alpha-keto acid dehydrogenase complex, mitochondrial K211N, P11182”, the abundance fitness is -0.058 ± 0.092.

For “Lipoamide acyltransferase component of branched-chain alpha-keto acid dehydrogenase complex, mitochondrial K211P, P11182”, the abundance fitness is -0.093 ± 0.048.

Take “Lipoamide acyltransferase component of branched-chain alpha-keto acid dehydrogenase complex, mitochondrial K211Q, P11182”: the abundance fitness was -0.024 ± 0.044.

“Lipoamide acyltransferase component of branched-chain alpha-keto acid dehydrogenase complex, mitochondrial K211R, P11182” returned an abundance fitness of 0.043 ± 0.037.

In the case of “Lipoamide acyltransferase component of branched-chain alpha-keto acid dehydrogenase complex, mitochondrial K211S, P11182”, the abundance fitness is -0.044 ± 0.04.

Turning to “Lipoamide acyltransferase component of branched-chain alpha-keto acid dehydrogenase complex, mitochondrial K211T, P11182”, the abundance fitness is -0.041 ± 0.056.

In the case of “Lipoamide acyltransferase component of branched-chain alpha-keto acid dehydrogenase complex, mitochondrial K211V, P11182”, the abundance fitness is -0.049 ± 0.045.

For the substance “Lipoamide acyltransferase component of branched-chain alpha-keto acid dehydrogenase complex, mitochondrial K211W, P11182”, the abundance fitness was -0.206 ± 0.047.

As to “Lipoamide acyltransferase component of branched-chain alpha-keto acid dehydrogenase complex, mitochondrial K211Y, P11182”, the abundance fitness is -0.157 ± 0.1.

With “Lipoamide acyltransferase component of branched-chain alpha-keto acid dehydrogenase complex, mitochondrial L172A, P11182”, the abundance fitness was -0.327 ± 0.053.

Turning to “Lipoamide acyltransferase component of branched-chain alpha-keto acid dehydrogenase complex, mitochondrial L172C, P11182”, the abundance fitness was -0.243 ± 0.079.

Consider “Lipoamide acyltransferase component of branched-chain alpha-keto acid dehydrogenase complex, mitochondrial L172D, P11182”, for which the abundance fitness was -0.237 ± 0.076.

For the substance “Lipoamide acyltransferase component of branched-chain alpha-keto acid dehydrogenase complex, mitochondrial L172E, P11182”, the abundance fitness is -0.107 ± 0.061.

For the substance “Lipoamide acyltransferase component of branched-chain alpha-keto acid dehydrogenase complex, mitochondrial L172F, P11182”, the abundance fitness is -0.195 ± 0.085.

As to “Lipoamide acyltransferase component of branched-chain alpha-keto acid dehydrogenase complex, mitochondrial L172G, P11182”, the abundance fitness is -0.681 ± 0.051.

For the substance “Lipoamide acyltransferase component of branched-chain alpha-keto acid dehydrogenase complex, mitochondrial L172H, P11182”, the abundance fitness was -0.052 ± 0.091.

Consider “Lipoamide acyltransferase component of branched-chain alpha-keto acid dehydrogenase complex, mitochondrial L172I, P11182”, for which the abundance fitness is -0.047 ± 0.066.

Consider “Lipoamide acyltransferase component of branched-chain alpha-keto acid dehydrogenase complex, mitochondrial L172K, P11182”, for which the abundance fitness is -0.004 ± 0.048.

“Lipoamide acyltransferase component of branched-chain alpha-keto acid dehydrogenase complex, mitochondrial L172M, P11182”: the abundance fitness is -0.063 ± 0.048.

Regarding “Lipoamide acyltransferase component of branched-chain alpha-keto acid dehydrogenase complex, mitochondrial L172N, P11182”, the abundance fitness is -0.127 ± 0.07.

Take “Lipoamide acyltransferase component of branched-chain alpha-keto acid dehydrogenase complex, mitochondrial L172P, P11182”: the abundance fitness was -0.226 ± 0.057.

With “Lipoamide acyltransferase component of branched-chain alpha-keto acid dehydrogenase complex, mitochondrial L172Q, P11182”, the abundance fitness was -0.428 ± 0.32.

On to “Lipoamide acyltransferase component of branched-chain alpha-keto acid dehydrogenase complex, mitochondrial L172R, P11182”, for which the abundance fitness was -0.347 ± 0.049.

For “Lipoamide acyltransferase component of branched-chain alpha-keto acid dehydrogenase complex, mitochondrial L172S, P11182”, the abundance fitness is -0.251 ± 0.045.

“Lipoamide acyltransferase component of branched-chain alpha-keto acid dehydrogenase complex, mitochondrial L172T, P11182”: the abundance fitness was -0.085 ± 0.1.

In the case of “Lipoamide acyltransferase component of branched-chain alpha-keto acid dehydrogenase complex, mitochondrial L172V, P11182”, the abundance fitness is -0.107 ± 0.039.

Regarding “Lipoamide acyltransferase component of branched-chain alpha-keto acid dehydrogenase complex, mitochondrial L172W, P11182”, the abundance fitness is -0.206 ± 0.061.

Turning to “Lipoamide acyltransferase component of branched-chain alpha-keto acid dehydrogenase complex, mitochondrial L172Y, P11182”, the abundance fitness is -0.139 ± 0.07.

Turning to “Lipoamide acyltransferase component of branched-chain alpha-keto acid dehydrogenase complex, mitochondrial L180C, P11182”, the abundance fitness was -0.421 ± 0.055.

For the substance “Lipoamide acyltransferase component of branched-chain alpha-keto acid dehydrogenase complex, mitochondrial L180D, P11182”, the abundance fitness is -0.895 ± 0.16.

As to “Lipoamide acyltransferase component of branched-chain alpha-keto acid dehydrogenase complex, mitochondrial L180E, P11182”, the abundance fitness is -0.438 ± 0.047.

For the substance “Lipoamide acyltransferase component of branched-chain alpha-keto acid dehydrogenase complex, mitochondrial L180F, P11182”, the abundance fitness was -0.027 ± 0.095.

On to “Lipoamide acyltransferase component of branched-chain alpha-keto acid dehydrogenase complex, mitochondrial L180G, P11182”, for which the abundance fitness was -0.609 ± 0.041.

Turning to “Lipoamide acyltransferase component of branched-chain alpha-keto acid dehydrogenase complex, mitochondrial L180H, P11182”, the abundance fitness is -0.938 ± 0.17.

Regarding “Lipoamide acyltransferase component of branched-chain alpha-keto acid dehydrogenase complex, mitochondrial L180I, P11182”, the abundance fitness was -0.194 ± 0.11.

Consider “Lipoamide acyltransferase component of branched-chain alpha-keto acid dehydrogenase complex, mitochondrial L180K, P11182”, for which the abundance fitness is -0.296 ± 0.2.

On to “Lipoamide acyltransferase component of branched-chain alpha-keto acid dehydrogenase complex, mitochondrial L180M, P11182”, for which the abundance fitness was 0.008 ± 0.088.

On to “Lipoamide acyltransferase component of branched-chain alpha-keto acid dehydrogenase complex, mitochondrial L180P, P11182”, for which the abundance fitness is -0.557 ± 0.13.

For “Lipoamide acyltransferase component of branched-chain alpha-keto acid dehydrogenase complex, mitochondrial L180Q, P11182”, the abundance fitness is -0.403 ± 0.12.

As to “Lipoamide acyltransferase component of branched-chain alpha-keto acid dehydrogenase complex, mitochondrial L180R, P11182”, the abundance fitness was -0.563 ± 0.046.

For “Lipoamide acyltransferase component of branched-chain alpha-keto acid dehydrogenase complex, mitochondrial L180V, P11182”, the abundance fitness was -0.222 ± 0.039.

“Lipoamide acyltransferase component of branched-chain alpha-keto acid dehydrogenase complex, mitochondrial L180W, P11182”: the abundance fitness was -0.56 ± 0.047.

As for “Lipoamide acyltransferase component of branched-chain alpha-keto acid dehydrogenase complex, mitochondrial L180Y, P11182”, the abundance fitness is -0.079 ± 0.1.

As for “Lipoamide acyltransferase component of branched-chain alpha-keto acid dehydrogenase complex, mitochondrial L188A, P11182”, the abundance fitness was -0.494 ± 0.057.

As for “Lipoamide acyltransferase component of branched-chain alpha-keto acid dehydrogenase complex, mitochondrial L188C, P11182”, the abundance fitness was -0.388 ± 0.062.
